Test results reported in patent US20240002497A1 (Merck Sharp & Dohme, published 2024).
Positions count from the first letter of the chain named. Names and notes keep the numbering of the source.

B1: F010301870 (VHH)
VHH: EVQLVESGGGVVQPGGSLRLSCATTSRAFIRDVFTGWYRRVPGKERELVARIYNGGNTNYADFAKGRFTISRDNAKKMVYLQMNSLRPEDTALYYCNFSGTINTGREYRSGDYWGQGTLVTVSS
notes: also called F0103464B09(L11V, S68T, T79Y, R81Q, S82aN, N82bS, K83R, G88A, V89L, L93N)
B2: F010302366 (VHH)
VHH: B1 VHH with T24A, T25S, R40Q, V41A, E45Q, F63S, M78T, N97L, N103S
notes: also called F0103464B09(L11V, T24A, T25S, R39Q, V40A, E44Q, F62S, S68T, M77T, T79Y, R81Q, S82aN, N82bS, K83R, G88A, V89L, N99S)
B3: F010302368 (VHH)
VHH: B1 VHH with T24A, T25S, R40Q, V41A, E45Q, F63S, A64V, M78T, N97L, N103S
notes: also called F0103464B09(L11V, T24A, T25S, R39Q, V40A, E44Q, F62S, A63V, S68T, M77T, T79Y, R81Q, S82aN, N82bS, K83R, G88A, V89L,N99S)
B4: F010302333 (VHH)
VHH: B1 VHH with T24A, T25S, A28Q, V41A, E45Q, G55E, F63S, M78T, N97L, N103S
B5: F010302365 (VHH)
VHH: B1 VHH with T24A, T25S, V41A, E45Q, F63S, M78T, N97L, N103S
notes: also called F0103464B09(L11V, T24A, T25S, V40A, E44Q, F62S, S68T, M77T, T79Y, R81Q, S82aN, N82bS, K83R, G88A, V89L, N99S)
B6: F010301867 (VHH)
VHH: EVQLVESGGGLVQPGGSLRLSCATTSRQFIRDVFTGWYRRVPGKERELVARIYNGGNTNYADFAKGRFSISRDNAKKMVTLRMSNLKPEDTGVYYCLFSGTINTGREYRSGDYWGQGTLVTVSS
notes: A28Q vs F0103464B09 (Kabat)
B7: F010301886 (VHH)
VHH: B6 VHH with Q28A, N59Q
notes: N58Q vs F0103464B09 (Kabat)
B8: F010301891 (VHH)
VHH: B6 VHH with Q28A, T58V
notes: T57V vs F0103464B09 (Kabat)
B9: F010301881 (VHH)
VHH: B6 VHH with Q28A, G55W
notes: G54W vs F0103464B09 (Kabat)
B10: F010301880 (VHH)
VHH: B6 VHH with Q28A, G55S
notes: G54S vs F0103464B09 (Kabat)
B11: F010301882 (VHH)
VHH: B6 VHH with Q28A, I30V
notes: I30V vs F0103464B09 (Kabat)
B12: F010301885 (VHH)
VHH: B6 VHH with Q28A, N54E
notes: N53E vs F0103464B09 (Kabat)
B13: F010301878 (VHH)
VHH: B6 VHH with Q28A, G55E
notes: G54E vs F0103464B09 (Kabat)
B14: F010301884 (VHH)
VHH: B6 VHH with Q28A, N54A
notes: N53A vs F0103464B09 (Kabat)
B15: F010301887 (VHH)
VHH: B6 VHH with Q28A, R31Q
notes: R31Q vs F0103464B09 (Kabat)
B16: F010301890 (VHH)
VHH: B6 VHH with Q28A, T35V
notes: T35V vs F0103464B09 (Kabat)
B17: F010301883 (VHH)
VHH: B6 VHH with Q28A, I52V
notes: I51V vs F0103464B09 (Kabat)
B18: F010301889 (VHH)
VHH: B6 VHH with Q28A, S99A
notes: S95A vs F0103464B09 (Kabat)
B19: F010301892 (VHH)
VHH: B6 VHH with Q28A, V33L
notes: V33L vs F0103464B09 (Kabat); also called F0103464B09(V33L)
B20: F010301888 (VHH)
VHH: B6 VHH with S26H, Q28A
notes: S26H vs F0103464B09 (Kabat)
B21: F010302341 (VHH)
VHH: EVQLVESGGGVVQPGGSLRLSCAASSRQFIRDVFTGWYRQAPGKQRELVARIYNEGNTNYADSAKGRFTISRDNAKKTVYLQMNSLRPEDTALYYCLFSGTISTGREYRSGDYWGQGTLVTVSS
B22: F010302345 (VHH)
VHH: B21 VHH with S26H, N54E, E55G, N59Q
B23: F010302357 (VHH)
VHH: B21 VHH with A64V
B24: F010302337 (VHH)
VHH: B21 VHH with S26H, Q40R, N54E, E55G, N59Q
B25: F010302335 (VHH)
VHH: B21 VHH with Q40R, N54E, E55S, N59Q
B26: F010302346 (VHH)
VHH: B21 VHH with S26H, Q28A, N54E, E55S, N59Q
B27: F010302334 (VHH)
VHH: B21 VHH with Q40R, N59Q
B28: F010302348 (VHH)
VHH: B21 VHH with S26H, Q28A, V33L, N54E, E55S
B29: F010302342 (VHH)
VHH: B21 VHH with N59Q
B30: F010302340 (VHH)
VHH: B21 VHH with S26H, Q28A, V33L, Q40R, N54E, E55S
B31: F010302336 (VHH)
VHH: B21 VHH with S26H, Q40R, N59Q
B32: F010302338 (VHH)
VHH: B21 VHH with S26H, Q28A, Q40R, N54E, E55S, N59Q
B33: F010302333 (VHH)
VHH: B21 VHH with Q40R
B34: F010302341 (VHH)
VHH: B21 VHH
B35: F010302344 (VHH)
VHH: B21 VHH with S26H, N59Q
B36: F010302347 (VHH)
VHH: B21 VHH with S26H, Q28A, N54E, E55G, N59Q
B37: F010302351 (VHH)
VHH: B21 VHH with Q40R, N54E, E55S, N59Q, A64V
B38: F010302343 (VHH)
VHH: B21 VHH with N54E, E55S, N59Q
B39: F010302350 (VHH)
VHH: B21 VHH with Q40R, N59Q, A64V
B40: F010302339 (VHH)
VHH: B21 VHH with S26H, Q28A, Q40R, N54E, E55G, N59Q

Legend:
[1] = molecular target: T1, huNav1.7α + β1-β2-β3 (human, UniProt Q15858 1-1988; A5A6L6 19-218; O60939 30-215; Q2KI11 23-215); test: binding FACS, CHO FlpIn
T1 construct: also called huNav1.7-beta1-beta2-beta3; huNav1.7-β1-β2-β3
Method: (§1) Binding of the ISVDs to cell-expressed Nav1.7α was detected via murine anti-Flag (Sigma, catalog #F1804). Briefly, cells were resuspended in FACS buffer (PBS, 10% FBS, NaN₃) and transferred to a 96-well V-bottom plate at 1×10^5 cells/well. Purified FLAG3-tagged ISVD was diluted in FACS buffer and added to the cells for 30 minutes at 4° C. […] Prior to the read-out, the samples were resuspended in 1 μg/mL propidium iodide (Sigma, catalog #P4170) to exclude dead cells. Between each step, the cells were centrifuged for 5 minutes at 200 grams and washed with 100 μL/well FACS buffer.

[2] = molecular target: T2, rhNav1.7α + β1-β2-β3 (rhesus monkey); test: binding FACS, CHO FlpIn cells
T2 construct: also called rhNav1.7-beta1-beta2-beta3; rhesus Nav1.7α
Method: as §1

[3] = molecular target: T3, huNav1.7α + β1-β2-β3 (human, UniProt Q15858 1-1988; A5A6L6 19-218; O60939 30-215; Q2KI11 23-215); test: binding FACS, CHO FlpIn cells
T3 construct: Cell line (CHO FlpIn, HEK FlpIn, transient HEK293T) is named under assay; also called huNav1.7-beta1-beta2-beta3; human Nav1.7α with Navβ1, Navβ2 and Navβ3
Method: as §1

Binder	Bmax [1] [%]	EC50 [1] [nM]	Bmax [2] [%]	EC50 [2] [nM]	EC50 [3] [nM]	Bmax [3] [%]	binding result [2]
B1	100	10	–	–	–	–	–
B2	100	3.7	–	–	–	–	–
B3	100	3.9	–	–	–	–	–
B4	100	4.1	–	–	–	–	–
B5	100	3.1	–	–	–	–	–
B6	–	–	74	22	4.8	–	–
B7	–	–	81	15	4.3	–	–
B8	–	–	45	26	4.7	–	–
B9	–	–	99	5.8	4.2	–	–
B10	–	–	73	24	4.9	–	–
B11	–	–	43	41	4.5	–	–
B12	–	–	100	18	8	–	–
B13	–	–	83	27	7.1	–	–
B14	–	–	47	50	6	–	–
B15	–	–	51	59	7.5	–	–
B16	–	–	58	20	5	–	–
B17	–	–	48	34	4.8	–	–
B18	–	–	92	8.5	5.4	–	–
B19	–	–	100	9.1	4	–	–
B20	–	–	95	8.7	5.3	–	–

Binder	Bmax [1] [%]	EC50 [1] [nM]	Bmax [2] [%]	EC50 [2] [nM]	EC50 [3] [nM]	Bmax [3] [%]	binding result [2]
B21	100	5.3	–	–	–	–	–
B22	–	–	96	12	4.9	100	–
B23	100	5.3	–	–	–	–	–
B24	–	–	100	6.8	3.9	100	–
B25	–	–	84	13	4.1	100	–
B26	–	–	99	12	5	100	–
B27	–	–	70	11	4	100	–
B28	–	–	95	14	6.7	100	–
B29	–	–	61	16	4	100	–
B30	–	–	96	13	4.6	100	–
B31	–	–	79	9.7	3.6	100	–
B32	–	–	100	7.9	3.4	100	–
B33	–	–	–	–	4.1	100	no binding
B34	–	–	–	–	5.3	100	no binding
B35	–	–	78	13	4.3	100	–
B36	–	–	100	9.6	4.6	100	–
B37	–	–	72	15	5.6	100	–
B38	–	–	84	18	6.4	100	–
B39	–	–	46	15	3.5	100	–
B40	–	–	100	6.8	4.3	100	–
